In patent US20030145347:

Key:
[1] = tested on: rice thioredoxin with S-tag (recombinant, expressed in E. coli from pNOV4113)
[2] = tested on: soybean thioredoxin prep without S-tag (recombinant, expressed in E. coli from pNOV4112, S-Tag removed by thrombin cleavage)
[3] = tested on: soybean thioredoxin with S-tag (recombinant, expressed in E. coli from pNOV4112)

Substance	reduction of thioredoxin in vitro [1]	reduction of thioredoxin, DTNB assay [1]	reduction of thioredoxin, DTNB assay [2]	reduction of thioredoxin, DTNB assay [3]	OD 650 nm (after 31 minutes), insulin reduction assay, thioredoxin 4 ug as printed in the row (insulin) [OD 650 nm]	OD 650 nm (after 31 minutes), insulin reduction assay, thioredoxin 5 ug as printed in the row (insulin) [OD 650 nm]	OD 650 nm (after 31 minutes), insulin reduction assay, thioredoxin 6 ug as printed in the row (insulin) [OD 650 nm]	OD 650 nm (after 31 minutes), insulin reduction assay, thioredoxin 7 ug as printed in the row (insulin) [OD 650 nm]	Rate of Precipitation (change of A650/min), insulin reduction assay, thioredoxin 4 ug as printed in the row (insulin) [A650/min]	Rate of Precipitation (change of A650/min), insulin reduction assay, thioredoxin 5 ug as printed in the row (insulin) [A650/min]	Rate of Precipitation (change of A650/min), insulin reduction assay, thioredoxin 6 ug as printed in the row (insulin) [A650/min]	Rate of Precipitation (change of A650/min), insulin reduction assay, thioredoxin 7 ug as printed in the row (insulin) [A650/min]
Arabidopsis NADPH thioredoxin reductase without S-tag (recombinant, expressed in E. coli from pNOV4115)	Arabidopsis thioredoxin reductase is found to be active in reducing rice thioredoxin in vitro	can also reduce rice thioredoxin	can reduce soybean thioredoxin with and without the S-tag	can reduce soybean thioredoxin with and without the S-tag								
soybean thioredoxin prep without S-tag (recombinant, expressed in E. coli from pNOV4112, S-Tag removed by thrombin cleavage)					0.001	0.0077	0.0084	0.0117	3.2e-05	0.00025	0.00027	0.00038
